The target in assay [1] is T1, lymphotoxin beta receptor (LT-β-R) (human, UniProt P36941 31-435).
T1 construct: whole, on cells; also called LT-β receptor
Briefly: FACS staining of HT-29 cells with purified antibody; reference huCBE11.

The target of assay [2] is T1, lymphotoxin beta receptor (LT-β-R). As to the kind of experiment: FACS of Protein A-purified antibodies on HT29 cells. As for the experimental part:
Co-transfections of 293-EBNA cells with chBHA10 and huBHA10 Versions 1-4 were scaled up and conditioned medium was harvested. Antibody was purified on Protein A-Sepharose and purified mAbs were assayed for activity. Binding to the lymphotoxin-beta receptor was determined by FACS analysis of protein A-purified antibodies on the cell-line HT29.
HT29 cells were harvested by treatment with PBS containing 5 mM EDTA for 30 minutes followed by vigorous agitation. Cells were distributed to round-bottom 96-well plates at 2.5×10⁵ cells/well. Supernatants from 293-E cells transfected with BHA10 variants were added to the wells at the indicated dilutions in a total volume of 100 μl and incubated at 4° C. for 1 hour. The cells were washed twice with FACS buffer (PBS containing 5% FBS) and incubated with a 1:100 dilution of PE-conjugated anti-human heavy and light chain antibody (Jackson ImmunoResearch Laboratories) for 1 hour. The cells were then washed 3 times with FACS buffer and resuspended in 100 μl of PBS containing 1.0% paraformaldehyde. Samples were then transferred to the FACS facility for analysis. Protein A-purified antibodies from 293-E cells transfected with BHA10 variants were assayed at the indicated concentrations as shown in FIG. 2. The Protein A-purified CBE11 and 5C8 (anti-CD40L antibody) research standards were used as positive and negative controls, respectively. Rank ordering of binding activity was chBHA10=Version 4 huBHA10=Version 2 huBHA10>Version 3 huBHA10.

Where a chain is given by its changes, count along the chain named.

T1 sequence (P36941 31-435): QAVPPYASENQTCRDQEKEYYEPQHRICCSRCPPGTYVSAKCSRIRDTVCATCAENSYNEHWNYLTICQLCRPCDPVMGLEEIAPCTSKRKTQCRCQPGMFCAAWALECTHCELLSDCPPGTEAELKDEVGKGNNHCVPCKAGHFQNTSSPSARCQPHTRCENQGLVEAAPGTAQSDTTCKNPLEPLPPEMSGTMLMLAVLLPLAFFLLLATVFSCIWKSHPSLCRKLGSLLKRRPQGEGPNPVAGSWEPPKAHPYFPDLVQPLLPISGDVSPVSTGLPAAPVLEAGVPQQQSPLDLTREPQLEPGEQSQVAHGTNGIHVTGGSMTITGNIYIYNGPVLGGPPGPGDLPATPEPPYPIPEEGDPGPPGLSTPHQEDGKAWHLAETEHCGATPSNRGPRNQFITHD

B1: chimeric BHA10 (chBHA10) (antibody, human IgG1, V domains shown)
VH: QVQLQQSGPELVKPGASVRISCKASGYTFTTYYLHWVKQRPGQGLEWIGWIYPGNVHAQYNEKFKGKATLTADKSSSTAYMQLSSLTSEDSAIYFCARSWEGFPYWGQGTTVTVSS
VL: DIVMTQSQKFMSTSVGDRVSVTCKASQNVGINVAWYQQKPGQSPKSLISSASYRYSGVPDRFTGSGSGTDFTLTITNVQSEDLAEYFCQQYDTYPFTFGSGTKLEIK
notes: expressed in 293-EBNA cells; also called chBHA 0
With B1, in assay [1], the “apparent Kd, fold relative to huCBE11” value is roughly 2 fold.

B2: Version 4 huBHA10 (antibody, human IgG1, kappa, V domains shown)
VH: QVQLVQSGAEVKKPGSSVKVSCKASGYTFTTYYLHWVRQAPGQGLEWMGWIYPGNVHAQYNEKFKGRVTITADKSTSTAYMELSSLRSEDTAVYYCARSWEGFPYWGQGTTVTVSS
VL: DIQMTQSPSSLSASVGDRVTITCKASQNVGINVAWYQQKPGKAPKSLISSASYRYSGVPSRFSGSGSGTDFTLTISSLQPEDFATYFCQQYDTYPFTFGQGTKVEIKR
notes: Heavy chain #3 and Light chain #2; human IgG1/kappa; the 293-EBNA material from pKJS046 may still carry it; also called huBHA10 Version 4; humanized BHA10 antibody version 4
B2: in assay [2], the binding result is “binds”.

B3: Version 3 huBHA10 (antibody, human IgG1, V domains shown)
VH: B2 VH
VL: DIQMTQSPSSLSASVGDRVTITCKASQNVGINVAWFQQKPGKAPKSLISSASYRYSGVPSRFSGSGSGTDFTLTISSLQPEDFATYYCQQYDTYPFTFGQGTKVEIK
notes: the 293-EBNA material may still carry it; also called huBHA10 Version 3
In the case of B3, the binding result in assay [2] was “binds”.

B4: Version 2 huBHA10 (antibody, human IgG1, V domains shown)
VH: B2 VH with M48I, V68A
VL: B2 VL
notes: also called huBHA10 Version 2
For the molecule B4, the binding result in assay [2] is given as “binds”.

Values taken from patent US20060222644A1 (Biogen, published 2006).
